According to US20230382948A1, “DELIVERY OF ENDOTHELIAL CELL-LADEN MICROGEL ELICITS ANGIOGENESIS IN SELF-ASSEMBLING ULTRASHORT PEPTIDE HYDROGELS” (KING ABDULLAH UNIVERSITY OF SCIENCE AND TECHNOLOGY, priority 2020, published 2023):

Legend:
[1] = pH of peptide solutions; type: physicochemical; settings: for pH of the peptide solution: 5 mg/mL in Milli-Q water; for pH of the peptide solution after the addition of PBS: 5 mg/mL
Description: The preweighed (as per the required final concentration) peptide powder was dissolved in 0.9 mL of Milli-Q® water in a glass vial. The solution was vortexed for 5-10 s to obtain a clear and homogeneous solution. To this peptide solution, 0.1 mL of PBS buffer (10×, w/o Ca^2+ and Mg^2+) was added. To ensure a homogeneous distribution of buffer in the solution, the glass vial was further vortexed for 2-3 s. The glass vial was kept undisturbed on the bench, and hydrogel formation was observed using the vial inversion method, as shown in FIG. 9. The pH of the solutions of IVFK (SEQ ID NO. 1) and IVZK (SEQ ID NO. 2) was 5.57 and 5.48 at a 5 mg/mL concentration, respectively. After the addition of PBS, the pH changed to 7.7 and 7.6 for IVFK (SEQ ID NO. 1) and IVZK (SEQ ID NO. 2), respectively. The pH of the Milli-Q® water and phosphate buffer used was 6.7 and 7.4, respectively.

[2] = test system: fibroblasts (HDFn); experiment: Cell culture on microgels, HDFn; type: cell-based, human; settings: first 24 h of culture
Description: A 1.2×10^6 amount of cells suspended in 4 mL of complete cell culture media (300,000 cells/mL) was mixed with 200 μL of microgels by pipetting. The mix was seeded at […] in a 24-well low binding plate and kept at 37° C., 95% humidity, and 5% CO2 under rocker conditions at 30 rpm for 24 h. Then, cell-laden microgels were transferred into a tube by pipetting and spun down at 50 g for 5 min. The upper layer, containing cells not adherent to the microgels, was discarded. At this moment, cell-laden microgels were either resuspended with complete cell culture media to continue cell culture under rocker conditions or processed for staining.
The cell-laden microgels were fixed with 4% formaldehyde (v/v) in PBS and incubated for 30 min at 22° C. Later, formaldehyde was removed by centrifugation, and cell-laden microgels were washed twice with PBS in a similar way. Permeabilization buffer (6.3 mM MgCl2, 233.7 mM sucrose, 0.5% (v/v) Triton® X-100 in PBS) was kept at −20° C. and thawed just before use. […]
Proliferative cells were labeled by incubating cell-laden microgels with […] EdU in complete medium for 24 h in rocking culture at 30 rpm. […] EdU was detected following the manufacturer instructions by incubating cell-laden microgels with a Click-iT Plus reaction cocktail for 30 min at 22° C. protected from light. […]

[3] = Microgel stability under cell culture procedures; type: physicochemical; settings: for Microgel size and shape stability: autoclaving, UV irradiation, trypsinization, rocking, 37 and 22° C.
Description: A 400 μL amount of microgels was diluted in 6 mL of DMEM, and aliquots of 1 mL were seeded in five 35 mm plastic Petri dishes and one 40 mm glass Petri dish. Each dish containing microgels was treated as follows: (1) Autoclaving at 121° C. for 20 min using the glass dish, (2) UV irradiation for 30 min, and (3) 0.125% trypsin-EDTA at 37° C. for 5 min. In addition, the remaining dishes containing microgels were treated for 16-18 days as follows: (4) 37° C., 95% humidity, and 5% CO2, (5) 37° C., 95% humidity, and 5% CO2 under rocker conditions at 30 rpm, and (6) 22° C. on a shelf. Microgel imaging was done before treatment and follow up every other day. FIG. 31 summarizes the experimental design.
Microgel imaging was done at each condition and time point using a CLSM Zeiss® 710 or 880 by tile scanning with 15% overlapping and online stitching to capture as many microgels as possible from the dish. The Feret diameter and roundness of each microgel was calculated using ImageJ software by manually drawing up to 59 microgel contours per condition. All statistical data analysis and microgel descriptor plotting were conducted in Origin software. To assess the effect of the treatments on the microgel diameter and roundness, a Kruskal—Wallis test with Posthoc test pairwise Mann—Whitney U tests was applied.

[4] = 22 C. at day 0, 2, 4, 10, 12, 14, 16, 18, the 5th table
[5] = 22 C. at day 0, 2, 4, 10, 12, 14, 16, the 4th table
[6] = 22 C., Autoclaving, UV and Trypsin, the 4th table
[7] = 22 C., Autoclaving, UV and Trypsin, the 5th table
[8] = 37 C. at day 0, 2, 4, 10, 12, 14, 16, 18, the 5th table
[9] = 37 C. at day 0, 2, 4, 10, 12, 14, 16, the 4th table
[10] = 37 C. at day 0, 2, 4, 16, 12, 14, 16, 18, the 5th table
[11] = 37 C. with rocking at day 0, 2, 4, 10, 12, 14, 16, 18, the 5th table
[12] = 37 C. with rocking at day 0, 2, 4, 10, 12, 14, 16, the 4th table
[13] = 37 C. with rocking at day 0, 2, 4, 10, 12, 14, 36, 18, the 5th table

Ac-Ile-Val-Phe-Lys-NH2 (Ac-IVFK-NH2) [self-assembling ultrashort tetrapeptide, forms hydrogels and microgels]
pH of the peptide solution [1]: 5.57
pH of the peptide solution after the addition of PBS [1]: 7.7
HDFn cell adhesion and morphology on microgels [2]: cell adhesion and stretched morphology
X2 (Kruskal-Wallis), microgel diameter [3, 4]: 10.76
X2 (Kruskal-Wallis), microgel roundness [3, 4]: 7.72
p (Kruskal-Wallis), microgel diameter [3, 4]: >0.05
p (Kruskal-Wallis), microgel roundness [3, 4]: >0.05
X2 (Kruskal-Wallis), microgel diameter [3, 5]: 1.69
X2 (Kruskal-Wallis), microgel roundness [3, 5]: 1.65
p (Kruskal-Wallis), microgel diameter [3, 5]: >0.05
p (Kruskal-Wallis), microgel roundness [3, 5]: >0.05
X2 (Kruskal-Wallis), microgel diameter [3, 6]: 3.99
X2 (Kruskal-Wallis), microgel roundness [3, 6]: 6.48
p (Kruskal-Wallis), microgel diameter [3, 6]: >0.05
p (Kruskal-Wallis), microgel roundness [3, 6]: >0.05
X2 (Kruskal-Wallis), microgel diameter [3, 7]: 5.61
X2 (Kruskal-Wallis), microgel roundness [3, 7]: 1.82
p (Kruskal-Wallis), microgel diameter [3, 7]: >0.05
p (Kruskal-Wallis), microgel roundness [3, 7]: >0.05
X2 (Kruskal-Wallis), microgel roundness [3, 8]: 12.93
p (Kruskal-Wallis), microgel roundness [3, 8]: >0.05
X2 (Kruskal-Wallis), microgel diameter [3, 9]: 1.28
X2 (Kruskal-Wallis), microgel roundness [3, 9]: 7.52
p (Kruskal-Wallis), microgel diameter [3, 9]: >0.05
p (Kruskal-Wallis), microgel roundness [3, 9]: >0.05
X2 (Kruskal-Wallis), microgel diameter [3, 10]: 13.16
p (Kruskal-Wallis), microgel diameter [3, 10]: >0.05
p (Kruskal-Wallis), microgel diameter ([3]; 37 C. with mocking at day 0, 2, 4, 10, 12, 14, 16, the 4th table): >0.05
X2 (Kruskal-Wallis), microgel diameter [3, 11]: 10.89
p (Kruskal-Wallis), microgel diameter [3, 11]: >0.05
X2 (Kruskal-Wallis), microgel diameter [3, 12]: 5.81
X2 (Kruskal-Wallis), microgel roundness [3, 12]: 3.62
p (Kruskal-Wallis), microgel roundness [3, 12]: >0.05
X2 (Kruskal-Wallis), microgel roundness [3, 13]: 4.28
p (Kruskal-Wallis), microgel roundness [3, 13]: >0.05
Microgel size and shape stability [3]: maintain their size and shape

Ac-Ile-Val-Cha-Lys-NH2 (IVXK; HELM PEPTIDE1{[ac].I.V.[Cha].K.[am]}$$$$V2.0; SMILES CC[C@H](C)[C@H](NC(C)=O)C(=O)N[C@H](C(=O)N[C@@H](CC1CCCCC1)C(=O)N[C@@H](CCCCN)C(N)=O)C(C)C) [IVZK, self-assembling ultrashort tetrapeptide, Z = cyclohexylalanine, forms hydrogels and microgels]
pH of the peptide solution [1]: 5.48
pH of the peptide solution after the addition of PBS [1]: 7.6
HDFn cell adhesion and morphology on microgels [2]: cell adhesion and stretched morphology
Microgel size and shape stability [3]: maintain their size and shape
